The record followed here is patent US6448376.

For the experiment, the target named is LexA-DP-1 (pLEX(HIS).DP-1: complete bacterial LexA protein fused to DP-1 residues 59 to 410) (bacterial; murine) (UniProt Q08639). The experiment can be described thus: cell-based or functional assay.
Sequence of UniProt Q08639 (Q08639 59-410): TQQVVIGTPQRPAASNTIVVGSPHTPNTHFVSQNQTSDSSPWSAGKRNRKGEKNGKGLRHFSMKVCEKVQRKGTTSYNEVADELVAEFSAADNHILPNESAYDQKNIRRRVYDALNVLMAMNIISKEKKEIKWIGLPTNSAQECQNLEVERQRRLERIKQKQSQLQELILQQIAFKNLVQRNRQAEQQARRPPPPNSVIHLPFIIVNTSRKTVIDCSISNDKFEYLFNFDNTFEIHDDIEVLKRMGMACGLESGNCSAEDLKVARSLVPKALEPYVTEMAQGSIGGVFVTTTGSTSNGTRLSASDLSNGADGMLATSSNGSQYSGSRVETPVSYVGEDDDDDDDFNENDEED

Substance “GAD-E2F-5 (pGAD.E2F-5: entire murine E2F-5 as a hybrid with the GAL4 activation domain 768-881) (from UniProt P04386 768-881)” had a transcriptional activity of the E2F site reporter p4xWT CYC1 in yeast of over 6 fold.
